Data as given in IntAct's records for PubMed 15772280.

B1: BTB/POZ domain-containing protein At1g21780 (Arabidopsis thaliana (Mouse-ear cress)), Q9XHZ8 (parent)
chain: MGDTKVETISRLAQWRIENFGPCSFKKSDPFKVGIWNWHLSIERNRYLSVRLFPELSRVSKEQPPVAKFVLRVSNVGPNRRFYISPVYEKLLRTTDDCVWHVDSSFHGRFTIDVEFLDLKICPVNGGEASPVWPTDATMQSISTQTTLKCLSRMLEESILTDVIIHTADGTLSAHKAILSASSTVFKSMFHHDLMEKESSTIHIDDMSRESCMALLSYLYGNITQEEFWKHRLALLGAANKYDITDLKAACEESLMEDINSSNVLERLQEAWLYQLEKLKKGCLMYLFDFGKIYDVREEISSFFRQADRELMLEMFQEVLSVWKPV
partner: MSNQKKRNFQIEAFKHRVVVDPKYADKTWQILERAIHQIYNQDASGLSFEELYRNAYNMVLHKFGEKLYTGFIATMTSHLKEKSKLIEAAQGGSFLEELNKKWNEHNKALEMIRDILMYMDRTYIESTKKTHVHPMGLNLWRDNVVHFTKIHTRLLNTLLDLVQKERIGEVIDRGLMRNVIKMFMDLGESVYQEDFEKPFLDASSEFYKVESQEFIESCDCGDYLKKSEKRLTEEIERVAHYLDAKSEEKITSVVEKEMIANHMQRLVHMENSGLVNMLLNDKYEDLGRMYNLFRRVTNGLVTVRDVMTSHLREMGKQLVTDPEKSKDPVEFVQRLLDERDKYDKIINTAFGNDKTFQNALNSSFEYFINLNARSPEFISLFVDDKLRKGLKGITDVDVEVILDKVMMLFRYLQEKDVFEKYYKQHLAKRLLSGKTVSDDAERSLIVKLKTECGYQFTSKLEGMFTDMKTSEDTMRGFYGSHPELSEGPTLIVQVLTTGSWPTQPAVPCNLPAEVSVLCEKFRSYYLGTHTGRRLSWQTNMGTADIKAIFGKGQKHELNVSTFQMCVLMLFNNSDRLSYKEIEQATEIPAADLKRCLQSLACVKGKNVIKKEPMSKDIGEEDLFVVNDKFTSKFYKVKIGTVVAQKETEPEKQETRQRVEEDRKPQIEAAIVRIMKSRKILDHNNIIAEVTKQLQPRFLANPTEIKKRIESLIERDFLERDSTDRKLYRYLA
B2: Cullin-3A (Arabidopsis thaliana (Mouse-ear cress)), Q9ZVH4 (parent)
chain: B1 partner
partner: B1 chain

Variants of: B1
Details: with cul3a_arath CUL3A, Q9ZVH4

Variant | effect of a mutation on the interaction
I204R | decreasing interaction
Y242A | decreasing interaction

Variants of: B2
Details: with y1178, Q9XHZ8

Variant | effect of a mutation on the interaction
F49A | decreasing interaction
S48A | decreasing interaction
